Measurements: article PMC6767301, “Polyamines Disrupt the KaiABC Oscillator by Inducing Protein Denaturation” (Molecules, 2019)

B1: KaiB (natural protein, Synechococcus elongatus PCC 7942, UniProt Q79PF5 1-102, looked up)
chain: MSPRKTYILKLYVAGNTPNSVRALKTLKNILEVEFQGVYALKVIDVLKNPQLAEEDKILATPTLAKVLPLPVRRIIGDLSDREKVLIGLDLLYGELQDSDDF
notes: KaiB, Synechococcus elongatus PCC 7942; A few vector residues may remain after PreScission cleavage (surmised); also called Kai proteins; clock proteins; source: E. coli, purified (GSH resin, GST removed by PreScission protease, size-exclusion chromatography)
B2: KaiA (natural protein, Synechococcus elongatus PCC 7942, UniProt Q79PF6 1-284, looked up)
chain: MLSQIAICIWVESTAILQDCQRALSADRYQLQVCESGEMLLEYAQTHRDQIDCLILVAANPSFRAVVQQLCFEGVVVPAIVVGDRDSEDPDEPAKEQLYHSAELHLGIHQLEQLPYQVDAALAEFLRLAPVETMADHIMLMGANHDPELSSQQRDLAQRLQERLGYLGVYYKRDPDRFLRNLPAYESQKLHQAMQTSYREIVLSYFSPNSNLNQSIDNFVNMAFFADVPVTKVVEIHMELMDEFAKKLRVEGRSEDILLDYRLTLIDVIAHLCEMYRRSIPRET
notes: KaiA, Synechococcus elongatus PCC 7942; A few vector residues may remain after PreScission cleavage (surmised); also called Kai proteins; clock proteins; source: E. coli, purified (GSH resin, GST removed by PreScission protease, size-exclusion chromatography)
B3: KaiC (natural protein, Synechococcus elongatus PCC 7942, UniProt Q79PF4 1-519, looked up)
chain: MTSAEMTSPNNNSEHQAIAKMRTMIEGFDDISHGGLPIGRSTLVSGTSGTGKTLFSIQFLYNGIIEFDEPGVFVTFEETPQDIIKNARSFGWDLAKLVDEGKLFILDASPDPEGQEVVGGFDLSALIERINYAIQKYRARRVSIDSVTSVFQQYDASSVVRRELFRLVARLKQIGATTVMTTERIEEYGPIARYGVEEFVSDNVVILRNVLEGERRRRTLEILKLRGTSHMKGEYPFTITDHGINIFPLGAMRLTQRSSNVRVSSGVVRLDEMCGGGFFKDSIILATGATGTGKTLLVSRFVENACANKERAILFAYEESRAQLLRNAYSWGMDFEEMERQNLLKIVCAYPESAGLEDHLQIIKSEINDFKPARIAIDSLSALARGVSNNAFRQFVIGVTGYAKQEEITGLFTNTSDQFMGAHSITDSHISTITDTIILLQYVEIRGEMSRAINVFKMRGSWHDKAIREFMISDKGPDIKDSFRNFERIISGSPTRITVDEKSELSRIVRGVQEKGPES
notes: KaiC, Synechococcus elongatus PCC 7942; The sample is a mixture of phosphorylated and de-phosphorylated KaiC; A few vector residues may remain after PreScission cleavage (surmised); also called Kai proteins; clock proteins; source: E. coli, purified (GSH resin, GST removed by PreScission protease, size-exclusion chromatography)

Molecular target: the molecule itself
Experiment: native gel or EMSA; 6% native PAGE of each Kai protein after 4 h of incubation at 30 °C with polyamines (putrescine, spermidine, spermine); 50 mM Tris-HCl pH 8.0, 150 mM NaCl, 5 mM ATP, 5 mM MgCl2, 0.01% Tween-20; total protein 1.0 mg/mL

Binding result, binds:
B1, B2, B3
